Experiments:
[1] = biological target: HexA-6His (Photorhabdus luminescens TT01); assay: SEC + other: dynamic light scattering; gel filtration of purified HexA-6His on a Superdex 200 column; DLS of the HexA peak fraction from gel filtration
[2] = test system: HexA-6His (Photorhabdus luminescens TT01); assay: SPR; conditions: 5' biotin on forward primer (PpcfA-Btn_fwd; position implied); SPR (Biacore T200, streptavidin chip, ~300 RU DNA): HBS-EP+ 10 mM HEPES pH 7.4, 150 mM NaCl, 3 mM EDTA, 0.05% Surfactant P20, 25 C …

Substance	stoichiometry N [1]	Kd [2] [nM]
HexA-6His (natural protein)	4	–
PpcfA promoter fragment (400 bp)	–	1300

— article PMC5407808
